Source: patent publication US5118793A, “Modified heparin cofactor II” (Washington University, priority 1991, dated 1992)
Numbering of substitutions follows the chain as printed.

B1: native rHCII: recombinant full-length heparin cofactor II expressed in E. coli; amino acid sequence identical to HCII purified from human plasma (protein, UniProt P05546 20-499, looked up)
Heparin cofactor 2: GSKGPLDQLEKGGETAQSADPQWEQLNNKNLSMPLLPADFHKENTVTNDWIPEGEEDDDYLDLEKIFSEDDDYIDIVDSLSVSPTDSDVSAGNILQLFHGKSRIQRLNILNAKFAFNLYRVLKDQVNTFDNIFIAPVGISTAMGMISLGLKGETHEQVHSILHFKDFVNASSKYEITTIHNLFRKLTHRLFRRNFGYTLRSVNDLYIQKQFPILLDFKTKVREYYFAEAQIADFSDPAFISKTNNHIMKLTKGLIKDALENIDPATQMMILNCIYFKGSWVNKFPVEMTHNHNFRLNEREVVKVSMMQTKGNFLAANDQELDCDILQLEYVGGISMLIVVPHKMSGMKTLEAQLTPRVVERWQKSMTNRTREVLLPKFKLEKNYNLVESLKLMGIRMLFDKNGNMAGISDQRIAIDLFKHQGTITVNEEGTQATTVTTVGFMPLSTQVRFTVDRPFLFLIYEHRTSCLLFMGRVANPSRS
modifications: recombinant, E. coli
B2: HCII: heparin cofactor II, a 65,600 dalton plasma glycoprotein, serpin that inhibits thrombin (protein, UniProt P05546 20-499, looked up)
Heparin cofactor 2: B1 Heparin cofactor 2
B3: rHCII(Leu444 →Arg): heparin cofactor II in which the leucine residue at position 444 is replaced by arginine; recombinant, expressed in E. coli (protein, UniProt P05546 20-499, looked up, variant L444R)
Heparin cofactor 2: B1 Heparin cofactor 2 with L444R
modifications: recombinant, E. coli-expressed
notes: heparin cofactor II in which the leucine residue at position 444 is replaced by arginine; recombinant, expressed in E. coli

Columns and labels:
[1] = test system: thrombin; assay: Inhibition of thrombin by rHCII, chromogenic substrate Chromozym TH, second-order rate constants; type: biochemical, human; conditions: for Increase in the rate constant for thrombin inhibition produced by dermatan sulfate: dermatan sulfate versus no GAG; for Increase in the rate constant for thrombin inhibition produced by heparin: heparin versus no GAG
Description: (§1) Inhibition of proteases by rHCII--Protease inhibition by rHCII was determined by incubating 90 μl of the partially purified rHCII (or the corresponding heparin-Sepharose fractions of a control lysate from cells transformed with pMON-5840) with 5 μl of the protease and 5 μl of either glycosaminoglycan or water in a disposable polystyrene cuvette at room temperature. Final concentrations of the proteases were as follows: thrombin, 15 nM; chymotrypsin, 21 nM; factor Xa, 16 nM; and kallikrein, 10 nM. After a specified period of time from 5 seconds (s) to 150 min, 300-500 μl of the appropriate chromogenic substrate was added, and the absorbance at 405 nm was recorded continuously for 100 s. The rate of change of absorbance was proportional to the concentration of active protease remaining in the incubation. The amounts added and concentrations of each substrate were as follows: Chromozym TH (thrombin), 500 μl, 0.1 mM; N-succinyl-Ala-Ala-Pro-Phe-p-nitroanilde (chymotrypsin), 300 μl, 0.5 mM; Spectrozyme FXa (factor Xa), 400 μl, 0.125 mM; and S-2302 (kallikrein), 300 μl, 0.4 mM.
Protease inhibition by rHCII in the absence of a glycosaminoglycan--The time courses of inhibition of thrombin, factor Xa, kallikrein, and chymotrypsin by native rHCII(Leu444 →Arg) in the absence of a glycosaminoglycan are indicated in FIG. 3. The incubations were performed under pseudo-first-order conditions, such that the initial concentration of rHCII was greater than the concentration of protease. The pseudo-first-order rate constants (k1) for protease inhibition were determined by fitting the data to the following equation: k1 t=1n([P]0 /[P]t), in which [P]0 =initial prolease activity and [P]t =protease activity at time=t. The second-order rate constants (k2) were then calculated by dividing k by the initial rHCII concentration. It was observed that rHCII(Leu444 →Arg) inhibits thrombin almost 100 times more rapidly than native rHCII in the absence of a glycosaminoglycan Furthermore, rHCII(Leu444 →Arg) inhibits factor Xa and kallikrein, while inhibition of these proteases by native rHCII is undetectable.
Inhibition of thrombin by rHCII in the presence dermatan sulfate or heparin--The time course of inhibition of thrombin was determined in the presence of various concentrations of dermatan sulfate or heparin.

[2] = test system: chymotrypsin; assay: Inhibition of chymotrypsin by rHCII, chromogenic substrate assay; type: biochemical, human
Description: as §1, with “The amounts added and concentrations of each substrate were as follows: Chromozym TH (thrombin), 500 μl, 0.1 mM; N-succinyl-Ala-Ala-Pro-Phe-p-nitroanilde (chymotrypsin), 300 μl, 0.5 mM; Spectrozyme FXa (factor Xa), 400 μl, 0.125 mM; and S-2302 (kallikrein), 300 μl, 0.4 mM.” left out
Protease inhibition by rHCII in the absence of a glycosaminoglycan--The time courses of inhibition of thrombin, factor Xa, kallikrein, and chymotrypsin by native rHCII(Leu444 →Arg) in the absence of a glycosaminoglycan are indicated in FIG. 3. […] The pseudo-first-order rate constants (k1) for protease inhibition were determined by fitting the data to the following equation: k1 t=1n([P]0 /[P]t), in which [P]0 =initial prolease activity and [P]t =protease activity at time=t. The second-order rate constants (k2) were then calculated by dividing k by the initial rHCII concentration. […]

[3] = test system: thrombin; conditions: cited from earlier work

| Molecule | Increase in the rate constant for thrombin inhibition produced by dermatan sulfate [1] | Increase in the rate constant for thrombin inhibition produced by heparin [1] | Effect of dermatan sulfate on the rate of inhibition of chymotrypsin [2] | Increase of the rate of thrombin inhibition by heparin and dermatan sulfate [3] |
| --- | --- | --- | --- | --- |
| B1 | ~3500 fold | about 40 fold | does not significantly increase | – |
| B2 | – | – | – | ~ 1000 fold |
| B3 | much smaller effect | minimal effect | – | – |
